Source: article PMC11189624

Key:
[1] = target: Mlph-ABD labelled with ATTO 488 NHS Ester dye (mouse) (UniProt Q91V27); experiment: MST; Monolith NT.115, 25 °C; Mlph-ABD labelled with ATTO 488 at 20 nM; two-fold dilution series (16) of Myo5a-MTD or Myo5a-MTDΔG from 50 uM; 50 mM Tris-HCl pH 7.8, 100 mM NaCl, 10 mM MgCl2, 0.05% Tween 20
[2] = target: Melanophilin GTBM (Mus musculus) (UniProt Q91V27); settings: cited from earlier work
Melanophilin GTBM (Mus musculus), sequence (Q91V27 176-201): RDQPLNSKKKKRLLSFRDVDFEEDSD

Myosin-5a GTD, sequence (Q99104 1469-1853): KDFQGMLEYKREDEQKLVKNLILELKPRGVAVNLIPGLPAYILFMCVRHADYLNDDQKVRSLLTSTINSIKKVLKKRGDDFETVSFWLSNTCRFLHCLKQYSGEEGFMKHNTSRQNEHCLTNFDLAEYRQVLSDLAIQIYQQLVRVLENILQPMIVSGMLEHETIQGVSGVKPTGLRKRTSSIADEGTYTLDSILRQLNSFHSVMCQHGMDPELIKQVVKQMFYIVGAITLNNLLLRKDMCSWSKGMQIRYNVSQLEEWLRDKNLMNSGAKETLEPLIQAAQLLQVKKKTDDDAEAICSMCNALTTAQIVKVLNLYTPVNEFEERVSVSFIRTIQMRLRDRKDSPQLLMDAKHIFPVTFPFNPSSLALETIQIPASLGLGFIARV
Mlph-ABD labelled with ATTO 488 NHS Ester dye (mouse), sequence (Q91V27 401-590): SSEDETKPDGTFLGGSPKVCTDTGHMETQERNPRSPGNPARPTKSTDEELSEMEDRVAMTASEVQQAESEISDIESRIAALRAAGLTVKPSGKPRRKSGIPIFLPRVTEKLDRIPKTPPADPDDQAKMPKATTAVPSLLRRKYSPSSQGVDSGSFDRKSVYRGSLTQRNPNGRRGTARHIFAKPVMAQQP

Flag-Myo5a-MTD (residues 1106–1467), bacterial-expressed (domain or fragment)
Kd [1]: 0.562 µM

Myosin-5a GTD (from UniProt Q99104)
Kd [2]: 1 µM
